In publication PMC10397247:

How the values were obtained:
[1] = biological target: T1, 4H319-bA; experiment: two-hybrid library CCNG1;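 note: natural log of median RNA to DNA barcode read ratio; higher means stronger binding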
T1 chain: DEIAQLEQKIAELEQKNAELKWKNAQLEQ

[2] = biological target: T2, 4H3277-bA; experiment: two-hybrid library CCNG1;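 note: natural log of median RNA to DNA barcode read ratio; higher means stronger binding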
T2 chain: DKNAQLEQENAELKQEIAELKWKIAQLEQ

[3] = biological target: T3, 4H348-bA; experiment: two-hybrid library CCNG1;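 note: natural log of median RNA to DNA barcode read ratio; higher means stronger binding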
T3 chain: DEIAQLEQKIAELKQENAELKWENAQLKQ

[4] = biological target: T4, 4H40-bA; experiment: two-hybrid library CCNG1;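 note: natural log of median RNA to DNA barcode read ratio; higher means stronger binding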
T4 chain: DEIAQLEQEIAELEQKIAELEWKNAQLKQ

[5] = biological target: T5, 4H477-bA; experiment: two-hybrid library CCNG1;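 note: natural log of median RNA to DNA barcode read ratio; higher means stronger binding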
T5 chain: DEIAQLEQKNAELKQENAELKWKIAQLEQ

[6] = biological target: T6, 4H492-bA; experiment: two-hybrid library CCNG1;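 note: natural log of median RNA to DNA barcode read ratio; higher means stronger binding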
T6 chain: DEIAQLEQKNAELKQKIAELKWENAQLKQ

[7] = biological target: T7, 4H741-bA; experiment: two-hybrid library CCNG1
T7 chain: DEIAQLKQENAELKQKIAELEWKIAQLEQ

[8] = biological target: T8, 4H2742-AA; experiment: two-hybrid library CCmax
T8 chain: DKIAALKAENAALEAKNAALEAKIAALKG

[9] = biological target: T9, 4H2948-AA; experiment: two-hybrid library CCmax; conditions: mean of both orientations
T9 chain: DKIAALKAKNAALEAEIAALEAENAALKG

[10] = biological target: T10, 4H2991-AA; experiment: two-hybrid library CCmax
T10 chain: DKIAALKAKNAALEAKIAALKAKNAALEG

[11] = biological target: T11, 4H3029-AA; experiment: two-hybrid library CCmax; conditions: mean of both orientations
T11 chain: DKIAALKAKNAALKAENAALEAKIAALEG

[12] = biological target: T12, 4H3066-AA; experiment: two-hybrid library CCmax; conditions: mean of both orientations
T12 chain: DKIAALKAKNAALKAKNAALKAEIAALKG

[13] = biological target: T13, 4H3102-AA; experiment: two-hybrid library CCmax; conditions: mean of both orientations
T13 chain: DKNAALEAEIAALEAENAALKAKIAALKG

[14] = biological target: T14, 4H3121-AA; experiment: two-hybrid library CCmax; conditions: mean of both orientations
T14 chain: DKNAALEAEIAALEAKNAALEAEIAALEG

[15] = biological target: T15, 4H3417-AA; experiment: two-hybrid library CCmax; conditions: mean of both orientations
T15 chain: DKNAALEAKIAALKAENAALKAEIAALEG

[16] = biological target: T16, 4H3446-AA; experiment: two-hybrid library CCmax; conditions: mean of both orientations
T16 chain: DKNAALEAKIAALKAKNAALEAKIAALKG

[17] = biological target: T17, 4H3591-AA; experiment: two-hybrid library CCmax; conditions: mean of both orientations
T17 chain: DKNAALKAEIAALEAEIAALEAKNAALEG

[18] = biological target: T18, 4H3628-AA; experiment: two-hybrid library CCmax
T18 chain: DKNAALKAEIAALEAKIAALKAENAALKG

[19] = biological target: T19, 4H3666-AA; experiment: two-hybrid library CCmax; conditions: mean of both orientations
T19 chain: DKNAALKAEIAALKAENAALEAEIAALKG

[20] = biological target: T20, 4H3709-AA; experiment: two-hybrid library CCmax; conditions: mean of both orientations
T20 chain: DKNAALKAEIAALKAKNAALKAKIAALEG

[21] = biological target: T21, 4H391-AA; experiment: two-hybrid library CCmax; conditions: mean of both orientations
T21 chain: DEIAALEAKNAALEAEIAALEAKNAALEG

[22] = biological target: T22, 4H3920-AA; experiment: two-hybrid library CCmax; conditions: mean of both orientations
T22 chain: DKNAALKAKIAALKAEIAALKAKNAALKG

[23] = biological target: T23, 4H3939-AA; experiment: two-hybrid library CCmax; conditions: mean of both orientations
T23 chain: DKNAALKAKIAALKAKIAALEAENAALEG

[24] = biological target: T24, 4H428-AA; experiment: two-hybrid library CCmax; conditions: mean of both orientations
T24 chain: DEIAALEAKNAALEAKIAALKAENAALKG

[25] = biological target: T25, 4H478-AA; experiment: two-hybrid library CCmax; conditions: mean of both orientations
T25 chain: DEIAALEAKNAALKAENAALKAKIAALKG

[26] = biological target: T26, 4H497-AA; experiment: two-hybrid library CCmax; conditions: mean of both orientations
T26 chain: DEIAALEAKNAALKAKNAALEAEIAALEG

[27] = biological target: T27, 4H656-AA; experiment: two-hybrid library CCmax; conditions: mean of both orientations
T27 chain: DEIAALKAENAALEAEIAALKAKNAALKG

[28] = biological target: T28, 4H675-AA; experiment: two-hybrid library CCmax; conditions: mean of both orientations
T28 chain: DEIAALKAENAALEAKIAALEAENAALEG

[29] = biological target: T29, 4H971-AA; experiment: two-hybrid library CCmax; conditions: mean of both orientations
T29 chain: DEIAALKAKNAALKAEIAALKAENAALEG

[30] = biological target: T30, APC3323-AA; experiment: two-hybrid library CCmax
T30 chain: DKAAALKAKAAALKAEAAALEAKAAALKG

[31] = biological target: T31, APC3354-AA; experiment: two-hybrid library CCmax; conditions: mean of both orientations
T31 chain: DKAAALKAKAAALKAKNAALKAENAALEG

[32] = biological target: T32, APC3881-AA; experiment: two-hybrid library CCmax; conditions: mean of both orientations
T32 chain: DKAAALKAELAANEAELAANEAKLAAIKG

[33] = biological target: T33, APC4100-AA; experiment: two-hybrid library CCmax; conditions: mean of both orientations
T33 chain: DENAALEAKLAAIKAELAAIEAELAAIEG

[34] = biological target: T34, APC4336-AA; experiment: two-hybrid library CCmax; conditions: mean of both orientations
T34 chain: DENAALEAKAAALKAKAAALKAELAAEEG

[35] = biological target: T35, APC5009-AA; experiment: two-hybrid library CCmax; conditions: mean of both orientations
T35 chain: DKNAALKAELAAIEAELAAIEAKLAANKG

[36] = biological target: T36, APC542-AA; experiment: two-hybrid library CCmax; conditions: mean of both orientations
T36 chain: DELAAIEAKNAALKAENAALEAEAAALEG

[37] = biological target: T37, APC5531-AA; experiment: two-hybrid library CCmax; conditions: mean of both orientations
T37 chain: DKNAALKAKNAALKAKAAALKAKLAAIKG

[38] = biological target: T38, APC6088-AA; experiment: two-hybrid library CCmax; conditions: mean of both orientations
T38 chain: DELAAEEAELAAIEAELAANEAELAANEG

[39] = biological target: T39, APC7524-AA; experiment: two-hybrid library CCmax; conditions: mean of both orientations
T39 chain: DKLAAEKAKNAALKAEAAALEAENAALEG

[40] = biological target: T40, APC8401-AA; experiment: two-hybrid library CCmax; conditions: mean of both orientations
T40 chain: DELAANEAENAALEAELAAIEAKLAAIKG

[41] = biological target: T41, APC8516-AA; experiment: two-hybrid library CCmax; conditions: mean of both orientations
T41 chain: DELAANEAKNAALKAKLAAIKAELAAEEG

[42] = biological target: T42, APC9141-AA; experiment: two-hybrid library CCmax; conditions: mean of both orientations
T42 chain: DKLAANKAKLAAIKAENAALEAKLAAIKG

[43] = biological target: T43, APC9182-AA; experiment: two-hybrid library CCmax; conditions: mean of both orientations
T43 chain: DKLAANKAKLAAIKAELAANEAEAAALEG

[44] = biological target: T44, APC9291-AA; experiment: two-hybrid library CCmax; conditions: mean of both orientations
T44 chain: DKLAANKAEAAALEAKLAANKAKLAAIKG

[45] = biological target: T45, APC9806-AA; experiment: two-hybrid library CCmax; conditions: mean of both orientations
T45 chain: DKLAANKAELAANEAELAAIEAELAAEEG

[46] = biological target: T46, O8; experiment: two-hybrid library CC0; conditions: mean of both orientations
T46 chain: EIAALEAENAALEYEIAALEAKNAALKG

[47] = biological target: T47, O9; experiment: two-hybrid library CC0; conditions: mean of both orientations
T47 chain: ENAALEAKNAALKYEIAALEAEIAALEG

## DEIAQLEQKIAELEQKNAELKWKNAQLEQ [4H319-bA]
[1]
  interaction score: -0.125
[2]
  interaction score: -0.964
[3]
  interaction score: -0.881
[4]
  interaction score: -0.44
[5]
  interaction score: -0.399
[6]
  interaction score: -1.05
[7]
  interaction score: -0.873

## DKIAALKAENAALEAKNAALEAKIAALKG [4H2742-AA]
[8]
  interaction score: -0.3
[9]
  interaction score: -0.899
[10]
  interaction score: -0.693
[11]
  interaction score: 0.775
[12]
  interaction score: 1.72
[13]
  interaction score: -1.33
[14]
  interaction score: -1.7
[15]
  interaction score: -1.41
[16]
  interaction score: -1.39
[17]
  interaction score: -0.99
[18]
  interaction score: -1.49
[19]
  interaction score: -1.97
[20]
  interaction score: -1.19
[21]
  interaction score: -1.21
[22]
  interaction score: -1.23
[23]
  interaction score: -1.63
[24]
  interaction score: -1.6
[25]
  interaction score: 1.12
[26]
  interaction score: 2.42
[27]
  interaction score: -2
[28]
  interaction score: -1.53
[29]
  interaction score: -1.91

## DKAAALKAKAAALKAEAAALEAKAAALKG [APC3323-AA]
[30]
  interaction score: 0.173
[31]
  interaction score: -1.64
[32]
  interaction score: -1.64
[33]
  interaction score: 1.59
[34]
  interaction score: -2.27
[35]
  interaction score: -1.38
[36]
  interaction score: -1.45
[37]
  interaction score: -1.7
[38]
  interaction score: -1.65
[39]
  interaction score: -1.5
[40]
  interaction score: -1.35
[41]
  interaction score: -1.75
[42]
  interaction score: -2.12
[43]
  interaction score: -1.64
[44]
  interaction score: -1.84
[45]
  interaction score: -1.66

## EIAALEAENAALEYEIAALEAKNAALKG [O8]
[46]
  interaction score: -2.62
[47]
  interaction score: -2.53
